Key:
Test in all cases: purified protein
[1] = substrate: COc1ccccc1O; settings: citrate-phosphate buffer, optimum pH 3.5, 25 °C stated for activity assay
[2] = substrate: CCn1c(=NN=c2sc3cc(S(=O)(=O)O)ccc3n2CC)sc2cc(S(=O)(=O)O)ccc21; type: biochemical, Pleurotus ostreatus; settings: citrate-phosphate buffer, optimum pH 3.0, 25 °C stated for activity assay
[3] = substrate: COc1cccc(OC)c1O; type: biochemical, Pleurotus ostreatus; settings: citrate-phosphate buffer, optimum pH 3.0, 25 °C stated for activity assay

B1: Recombinant laccase X33-Lac-2 (Pleurotus ostreatus) (protein)
chain: AIGPAGNMYIVNEDVSPDGFARSAVVARSVPATDPTPATASIPGVLVQGNKGDNFQLNVVNQLSDTTMLKTTSIHWHGFFQAGSSWADGPAFVTQCPVASGDSFLYNFNVPDQAGTFWYHSHLSTQYCDGLRGPFVVYDPSDPHLSLYDIDNADTVITLEDWYHIVAPQNAAIPTPDSTLINGKGRYAGGPTSPLAIINVESNKRYRFRLVSMSCDPNFTFSIDGHSLLVIEADAVNIVPITVDSIQIFAGQRYSFVLTANQAVDNYWIRANPNLGSTGFVGGINSAILRYAGATEDDPTTTSSTSTPLLETNLVPLENPGAPGPPVPGGADININLAMAFDFTTFELTINGVPFLPPTAPVLLQILSGASTAASLLPSGSIYELEANKVVEISMPALAVGGPHPFHLHGHTFDVIRSAGSTTYNFDTPARRDVVNTGTGANDNVTIRFVTDNPGPWFLHCHIDWHLEIGLAVVFAEDVTSISAPPAAWDDLCPIYNALSDNDKGGIVPS
notes: about 57 kDa on SDS-PAGE
With B1 the Km [1] was 302.4 ± 26.0 µM, the Km [2] was 13.6 ± 2.9 µM and the kcat [2] was 311 ± 21 s⁻¹. The kcat/Km [2] was 2.28e+07 M⁻¹ s⁻¹, the Km [3] was 79.2 ± 18.3 µM and the kcat [3] was 19.8 ± 1.1 s⁻¹. The kcat/Km [3] was 250000 M⁻¹ s⁻¹.

Source: paper PMC7232166, “Expression of Pleurotus ostreatus Laccase Gene in Pichia pastoris and Its Degradation of Corn Stover Lignin” (Microorganisms, 2020)
